This is an account of results in US20130059772A1, “Use of Repeat Sequence Protein Polymers in Personal Care Compositions” (DANISCO US INC., priority 2003, published 2013).

Series [1] in a line: Isoelectric point determination (IEF gel). The series is classed as physicochemical. The conditions noted are these: stated in production example. How it is done:
In this Example, experiments performed to determine the isoelectric point and cloud point of SELP47K (Example 1) are described. The isoelectric point of SELP47K was determined by electrophoresing 5 mg/ml SELP47K solution using Isoelectric Focusing Electrophoresis (IEF) gel and Novex electrophoresis apparatus along with protein standards markers.

In series [2] the test system is Fibroblasts (HDFn Cell Line). Nature of the series: MTT assay (second cell viability assay). The conditions noted are these: 48 hours.
Text: The purple crystals are extracted from the cells with isopropanol and the amount of crystal formation quantified spectrophotometrically. The intensity of the purple color is directly proportional to the metabolic activity of the cultured cells, which normally is used as an indication of an increase in the number of viable cells, although it can also indicate an increase in the mitochondrial content of the existing cells (Alley et al., Cancer Res., 48:589-601 1988). A decrease in color intensity can be a sign of toxicity.
Fibroblasts (Cascade Biologics, HDFn Cell Line, lot#1C0914) were seeded into the individual wells of either a 96-well plate (for the initial pilot work to determine concentration effects on cell viability) in 100 μl of Fibroblast Growth Media (FGM) or in 12-well plates (for the measurement of collagen, elastin and MMP-1) in 1.0 ml of FGM and incubated overnight at 37±2° C. and 5±1% CO2. On the following day, the medium was removed via aspiration to eliminate any non-adherent cells and replaced with fresh FGM. The cells were grown until confluent, with a media change every 48 to 72 hours. Upon reaching confluency, the cells were treated for 24 hours with Dulbecco's Modified Essential Media (DMEM) supplemented with 1.5% FBS to wash out any effects from the growth factors included in the normal FGM. After this 24-hour wash out period, the cells were treated with the test materials at the specified concentrations dissolved in DMEM with 1.5% FBS. […]
After the 2-day incubation, the cell culture medium was removed and the fibroblasts were washed twice with PBS to remove any remaining test material. […] The 96-well plates were read at 540 nm using isopropyl alcohol as a blank. The mean MTT absorbance value for the negative control cells was calculated and used to represent 100% value for cell viability. The individual MTT values from the cells undergoing the various treatments were then divided by the mean value for the negative control cells and expressed as a percent, to determine the change in cell viability caused by each treatment.
Series [3] has as its system cultured dermal fibroblasts. Nature of the series: UVB protection, follow-up MTT assay (pretreatment protocols). The series is classed as cell-based, human. The conditions noted are these: UVB control 79 ± 19. Here is the method:
(§1) Two sets of duplicate cells were prepared using the four treatment protocols outlined in Table 24. One set of cells was used for an MTT assay while the other set of cells was used to measure the formation of ROS using the fluorescent DCF dye indicator.
(§2) For this follow up study, the material was tested at concentrations of 0.14% and 0.014%. During the pretreatment phase, the test material was diluted in FGM (for treatments 1 and 2). […] For the MTT assay, cells that were not exposed to UVB or treated with test materials were used to represent 100% cell viability.

Series [4] has as its system reactive oxygen species (ROS). The series can be described thus: Fluorescent DCF dye assay after UVB. The series is classed as cell-based, human. The note with it: No UVB 0.031, UVB 0.057. How it is done:
Therefore, the aim of the follow-up study, was to determine if treatment with the test material before or during UVB exposure provided any additional survival benefit(s). Four different treatment regiments were employed using different combinations of pretreatment with the test material prior to UVB exposure and treatment with the material during UVB exposure. Cell survival was again assessed via an MTT assay 48 hours after the UVB insult. In addition, this second study also incorporated the use of 2′,7′-dichloro-dihydrofluorescein diacetate (DCF), which is a relatively non-fluorescent dye that can be loaded into cells and becomes fluorescent upon exposure to the reactive oxygen species (ROS) generated during UVB exposure (Carini et al., Il Farmaco 55:526-534 [2000]; and Chan et al., J. Cell. Biochem., 90:327-338 [2003]). The diacetate form of the dye can freely traverse cell membranes, however once inside of the cell intracellular esterases will cleave off the acetate side groups trapping the DCF dye within the cell.
as §1, §2
One hour prior to UVB exposure, the cell culture media were removed and the wells were washed with PBS to remove any residual RSPP test material in the set of cells used for the DCF assay. A 20 mM stock of DCF prepared in DMSO was diluted to 10 μM using PBS and 100 μl of this solution were added to each well. The plate was then returned to the incubator for 1 hour, to allow sufficient time for the cells to take up and trap the dye. After the 1-hour incubation, the cells were washed with PBS to remove any unincorporated dye and then exposed to UVB using the protocol described above. Forty-eight hours later, the 96-well plate was read using a fluorometer set for an excitation wavelength of 485 nm and an emission wavelength of 518 nm. The duplicate set of wells run for the MTT assay served as non-dye loaded blanks to account for any background fluorescence due to the cells or the test material.
The mean fluorescence intensity was determined for each of the treatment groups (measured in relative fluorescence units or “RFU”).

Where [5] appears, read: T1 (24 hour pretreatment, absent during UVB, present 48 hours after) 0.014%.
[6] abbreviates: T1 (24 hour pretreatment, absent during UVB, present 48 hours after) 0.14%.
The mark [7] stands for this setting: T2 (24 hour pretreatment, present during UVB and 48 hours after) 0.014%.
Where [8] appears, read: T2 (24 hour pretreatment, present during UVB and 48 hours after) 0.14%.
Where [9] appears, read: T3 (present only 48 hours after UVB) 0.014%.
The mark [10] stands for this setting: T3 (present only 48 hours after UVB) 0.14%.
The mark [11] stands for this setting: T4 (no pretreatment, present during UVB and 48 hours after) 0.014%.
The mark [12] stands for this setting: T4 (no pretreatment, present during UVB and 48 hours after) 0.14%.

B1: GC2596-26-E: collagen-like repeat sequence protein polymer, head-[(GAHGPAGPK)2(GAQGPAGPG)24(GAHGPAGPK)2]4-tail; SEQ ID NO:34 (Example 5) (protein)
chain: MDPVVLQRRDWENPGVTQLNRLAAHPPFASDPMGAHGPAGPKGAHGPAGPKGAQGPAGPGGAQGPAGPGGAQGPAGPGGAQGPAGPGGAQGPAGPGGAQGPAGPGGAQGPAGPGGAQGPAGPGGAQGPAGPGGAQGPAGPGGAQGPAGPGGAQGPAGPGGAQGPAGPGGAQGPAGPGGAQGPAGPGGAQGPAGPGGAQGPAGPGGAQGPAGPGGAQGPAGPGGAQGPAGPGGAQGPAGPGGAQGPAGPGGAQGPAGPGGAQGPAGPGGAHGPAGPKGAHGPAGPKGAHGPAGPKGAHGPAGPKGAQGPAGPGGAQGPAGPGGAQGPAGPGGAQGPAGPGGAQGPAGPGGAQGPAGPGGAQGPAGPGGAQGPAGPGGAQGPAGPGGAQGPAGPGGAQGPAGPGGAQGPAGPGGAQGPAGPGGAQGPAGPGGAQGPAGPGGAQGPAGPGGAQGPAGPGGAQGPAGPGGAQGPAGPGGAQGPAGPGGAQGPAGPGGAQGPAGPGGAQGPAGPGGAQGPAGPGGAHGPAGPKGAHGPAGPKGAHGPAGPKGAHGPAGPKGAQGPAGPGGAQGPAGPGGAQGPAGPGGAQGPAGPGGAQGPAGPGGAQGPAGPGGAQGPAGPGGAQGPAGPGGAQGPAGPGGAQGPAGPGGAQGPAGPGGAQGPAGPGGAQGPAGPGGAQGPAGPGGAQGPAGPGGAQGPAGPGGAQGPAGPGGAQGPAGPGGAQGPAGPGGAQGPAGPGGAQGPAGPGGAQGPAGPGGAQGPAGPGGAQGPAGPGGAHGPAGPKGAHGPAGPKGAHGPAGPKGAHGPAGPKGAQGPAGPGGAQGPAGPGGAQGPAGPGGAQGPAGPGGAQGPAGPGGAQGPAGPGGAQGPAGPGGAQGPAGPGGAQGPAGPGGAQGPAGPGGAQGPAGPGGAQGPAGPGGAQGPAGPGGAQGPAGPGGAQGPAGPGGAQGPAGPGGAQGPAGPGGAQGPAGPGGAQGPAGPGGAQGPAGPGGAQGPAGPGGAQGPAGPGGAQGPAGPGGAQGPAGPGGAHGPAGPKGAHGPAGPKMDPGRYQLSAGRYHYQLVWCQK
modifications: silk-elastin repeat sequence protein copolymer
Consider B1, for which, in series [1], the “pI of the protein” value was 11.18.

B2: GC2596-26-D: SELP47K modified with two units of ALSYP (SEQ ID NO:36) peptides in each SELP47K unit; SEQ ID NO:32 (Example 4) (protein)
chain: MDPVVLQRRDWENPGVTQLNRLAAHPPFASDPMGAGAGSGAGAGSALSYPGVGVPGVGVPGVGVPGVGVPGKGVPGVGVPGVGVPGVGVPALSYPGAGAGSGAGAGSGAGAGSGAGAGSALSYPGVGVPGVGVPGVGVPGVGVPGKGVPGVGVPGVGVPGVGVPALSYPGAGAGSGAGAGSGAGAGSGAGAGSALSYPGVGVPGVGVPGVGVPGVGVPGKGVPGVGVPGVGVPGVGVPALSYPGAGAGSGAGAGSGAGAGSGAGAGSALSYPGVGVPGVGVPGVGVPGVGVPGKGVPGVGVPGVGVPGVGVPALSYPGAGAGSGAGAGSGAGAGSGAGAGSALSYPGVGVPGVGVPGVGVPGVGVPGKGVPGVGVPGVGVPGVGVPALSYPGAGAGSGAGAGSGAGAGSGAGAGSALSYPGVGVPGVGVPGVGVPGVGVPGKGVPGVGVPGVGVPGVGVPALSYPGAGAGSGAGAGSGAGAGSGAGAGSALSYPGVGVPGVGVPGVGVPGVGVPGKGVPGVGVPGVGVPGVGVPALSYPGAGAGSGAGAGSGAGAGSGAGAGSALSYPGVGVPGVGVPGVGVPGVGVPGKGVPGVGVPGVGVPGVGVPALSYPGAGAGSGAGAGSGAGAGSGAGAGSALSYPGVGVPGVGVPGVGVPGVGVPGKGVPGVGVPGVGVPGVGVPALSYPGAGAGSGAGAGSGAGAGSGAGAGSALSYPGVGVPGVGVPGVGVPGVGVPGKGVPGVGVPGVGVPGVGVPALSYPGAGAGSGAGAGSGAGAGSGAGAGSALSYPGVGVPGVGVPGVGVPGVGVPGKGVPGVGVPGVGVPGVGVPALSYPGAGAGSGAGAGSGAGAGSGAGAGSALSYPGVGVPGVGVPGVGVPGVGVPGKGVPGVGVPGVGVPGVGVPALSYPGAGAGSGAGAGSGAGAGSGAGAGSALSYPGVGVPGVGVPGVGVPGVGVPGKGVPGVGVPGVGVPGVGVPALSYPGAGAGSGAGAGSGAGAMDPGRYQDLRSHHHHHH
modifications: SELP 47K-P4
Take B2: the “Percent Viability” value in series [2] (0.0014%) turned out to be 100 ± 3%; in series [2] (0.007%), 103 ± 2%; in series [2] (0.014%) it was 106 ± 5%; in series [3] (setting [5]), 85 ± 7%; in series [3] (setting [6]), 122 ± 20%; in series [3] (setting [7]) it was 78 ± 4%. The “Percent Viability” value is 126 ± 25% in series [3] (setting [8]); 88% in series [3] (setting [9]); 97 ± 14% in series [3] (setting [10]); around 100% in series [3] (T3 (present only 48 hours after UVB) 0.14%, listed as 2596-26-D); 86 ± 6% in series [3] (setting [11]); 121 ± 19% in series [3] (setting [12]). The RFU/Viability is given as 0.038 in series [4] (setting [5]); 0.038 in series [4] (setting [6]); 0.035 in series [4] (setting [7]); 0.032 in series [4] (setting [8]); 0.053 in series [4] (setting [9]); 0.039 in series [4] (setting [10]). Besides, the RFU/Viability in series [4] (setting [11]) is listed as 0.052; in series [4] (setting [12]) it was 0.026.
